Legend:
His6-Trs31 (recombinant) = molecular target: T1, His6-Trs31 (recombinant) (yeast, UniProt Q03337 1-283); experiment: co-purification of co-expressed subunits
T1 sequence (looked up): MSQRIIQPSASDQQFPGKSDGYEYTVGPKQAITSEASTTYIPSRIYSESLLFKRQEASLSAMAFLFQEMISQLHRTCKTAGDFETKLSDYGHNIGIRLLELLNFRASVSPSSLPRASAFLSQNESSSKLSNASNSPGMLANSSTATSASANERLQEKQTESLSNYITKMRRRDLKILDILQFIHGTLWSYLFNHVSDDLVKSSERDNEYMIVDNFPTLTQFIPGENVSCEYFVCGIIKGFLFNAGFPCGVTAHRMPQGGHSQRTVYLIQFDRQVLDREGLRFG

Trs130-TAP (recombinant) = molecular target: T2, Trs130-TAP (recombinant) (yeast, UniProt Q03660 1-1102); experiment: co-purification of co-expressed subunits
T2 sequence (looked up): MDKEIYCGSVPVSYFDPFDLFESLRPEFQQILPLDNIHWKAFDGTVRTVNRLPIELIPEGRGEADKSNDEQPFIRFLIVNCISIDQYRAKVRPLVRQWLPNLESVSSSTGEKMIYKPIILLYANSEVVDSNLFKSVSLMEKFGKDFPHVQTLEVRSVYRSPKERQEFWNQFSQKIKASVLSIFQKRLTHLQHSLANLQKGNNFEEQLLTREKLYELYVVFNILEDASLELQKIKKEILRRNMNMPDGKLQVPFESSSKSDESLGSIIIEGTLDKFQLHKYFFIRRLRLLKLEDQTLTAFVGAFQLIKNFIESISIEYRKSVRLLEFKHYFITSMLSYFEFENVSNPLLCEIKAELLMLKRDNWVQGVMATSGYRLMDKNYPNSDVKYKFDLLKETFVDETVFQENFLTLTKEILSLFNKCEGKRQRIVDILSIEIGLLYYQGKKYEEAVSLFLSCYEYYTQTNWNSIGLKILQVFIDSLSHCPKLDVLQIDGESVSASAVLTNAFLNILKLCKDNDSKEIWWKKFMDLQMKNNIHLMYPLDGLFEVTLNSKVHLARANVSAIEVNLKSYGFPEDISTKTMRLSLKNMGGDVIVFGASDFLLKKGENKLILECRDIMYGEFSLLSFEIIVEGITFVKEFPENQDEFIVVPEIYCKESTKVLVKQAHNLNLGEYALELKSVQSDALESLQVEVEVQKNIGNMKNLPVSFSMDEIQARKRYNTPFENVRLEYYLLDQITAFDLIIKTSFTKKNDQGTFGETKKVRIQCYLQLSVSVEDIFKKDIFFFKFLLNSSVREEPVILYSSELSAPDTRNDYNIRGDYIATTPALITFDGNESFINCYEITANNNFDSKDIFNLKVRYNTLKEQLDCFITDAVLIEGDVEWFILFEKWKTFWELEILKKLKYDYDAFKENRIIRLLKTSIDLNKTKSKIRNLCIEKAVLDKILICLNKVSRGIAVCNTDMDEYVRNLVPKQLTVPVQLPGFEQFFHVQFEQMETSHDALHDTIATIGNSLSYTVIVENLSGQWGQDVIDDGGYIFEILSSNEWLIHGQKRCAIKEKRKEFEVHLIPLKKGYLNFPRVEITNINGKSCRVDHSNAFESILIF

stoichiometry N (His6-Trs31 (recombinant)): 2 | stoichiometry N (Trs130-TAP (recombinant)): 2
B1: Bet3 (recombinant) (natural protein, yeast, UniProt P36149 1-193, looked up)
chain: MVSTTQSRSLKAMGEEIWKNKTEKINTELFTLTYGSIVAQLCQDYERDFNKVNDHLYSMGYNIGCRLIEDFLARTALPRCENLVKTSEVLSKCAFKIFLNITPNITNWSHNKDTFSLILDENPLADFVELPMDAMKSLWYSNILCGVLKGSLEMVQLDCDVWFVSDILRGDSQTEIKVKLNRILKDEIPIGED
